In publication doi:10.1101/2025.09.02.673855, “Bacteriophage T4 gene 32 protein: Insights into its Interaction with ssDNA, binding cooperativity, and conformational change” (bioRxiv, 2025):
Numbering of substitutions follows the chain as printed. Numbers in names are those of the source.

Target: the molecule itself
Experiment: other fluorescence titration; aliquots of protein added to poly(εA), enhancement of ethenoadenylate fluorescence; 0.45 M NaCl, 0.02 M HEPES pH 7.68, 1x10^-4 M EDTA/Na+, 20°C; McGhee-von Hippel cooperative model, n = 8; ω is the cooperativity between adjacent proteins bound on the polynucleotide

B1: Bacteriophage T4 gene 32 protein, full-length protein (1-301) (natural protein, UniProt P03695 1-301, looked up)
chain: MFKRKSTAELAAQMAKLNGNKGFSSEDKGEWKLKLDNAGNGQAVIRFLPSKNDEQAPFAILVNHGFKKNGKWYIETCSSTHGDYDSCPVCQYISKNDLYNTDNKEYSLVKRKTSYWANILVVKDPAAPENEGKVFKYRFGKKIWDKINAMIAVDVEMGETPVDVTCPWEGANFVLKVKQVSGFSNYDESKFLNQSAIPNIDDESFQKELFEQMVDLSEMTSKDKFKSFEELNTKFGQVMGTAVMGGAAATAAKKADKVADDLDAFNVDDFNTKTEDDFMSSSSGSSSSADDTDLDDLLNDL
notes: also called gp32; wild-type gp32; source: expression plasmid pYS6, induced, overexpressed and purified as previously described
  cooperativity parameter ω (on poly(εA)): 2000

B2: gp32 variant D215A, E218A, D223A (natural protein, bacteriophage T4, UniProt P03695 1-301, looked up)
chain: B1 chain with D215A, E218A, D223A
notes: gene 32 protein of bacteriophage T4 with three negative charges removed within and adjacent to the B helix (216-220); source: pYS6 variant, induced, overexpressed and purified as previously described
  cooperativity parameter ω (on poly(εA)): 120

B3: gp32 variant E229A, E230A (natural protein, bacteriophage T4, UniProt P03695 1-301, looked up)
chain: B1 chain with E229A, E230A
notes: gene 32 protein of bacteriophage T4 with two negative charges removed within the C helix (228-237); source: pYS6 variant, induced, overexpressed and purified as previously described
  cooperativity parameter ω (on poly(εA)): 1000
